Target: T1, ubiquitin propargylamide (UB-PA) (UniProt P0CG48 1-75, C-terminal propargylamide)
T1 construct: also called ubiquitin-propargylamide suicide probe
Assay: NMR chemical shift perturbation of the covalent adduct against the apo protein
Conditions: both partners purified

B1: Cdu1(130-401), wildtype (enzyme)
chain: PVKTQEDLLPLVPEQVFVEMYEDMARRQTIEALVPAWDSDIIFKCLCYFHTLYPGLIPLETFPPATIFNFKQKIISILEDKKAVLRGEPIKGPLPICCSKENYRRHLQRTTLLPVFMWYHPTPKTLSDTMQTMKQLAIKGSVGASHWLLVIVDIQARRLVYFDSLYNYVMPPENMKKELQSFAQQLDQVYPAYDSKKFSVKIAAKEVIQRGSGSSCGAWCCQFLHWYLKDPLTDALNDLPVDSVERHENLASFVQACEAAVQDLPELSWPEA
notes: source: E. coli Rosetta 2(DE3), purified (Ni-NTA, 3C cleavage, SEC); not shown: 6xHis, N-terminal, cleaved
binding result: binds

— paper PMC11527256, “Linkage-specific ubiquitin binding interfaces modulate the activity of the chlamydial deubiquitinase Cdu1 towards poly-ubiquitin substrates” (PLOS Pathogens, 2024)
